Test results as given in US20260210939A1, “MODIFIED OLFACTORY RECEPTORS” (GIVAUDAN SA, priority 2022, published 2026).

The substances below were run against T1, OR7C1 (Homo sapiens, UniProt O76099, D296E/G302K/M297V/R299D/T295K/V126I) (assay: CRE-luciferase assay, HEK293T cells expressing OR7C1 (wild-type / modified C-terminus)). Settings: OR7C1 variant, 1 μM Ambermax.
T1 construct: Improved functional expression of modified OR-genes containing the truncated, optimized C-terminus; expressed in transfected cells; host or cells: HEK293T stably expressing human RTP1S(V227I) and RTP2(L220R)
T1 sequence (O76099 with tags, fused parts or gaps V126I/T295K/D296E/M297V/R299D/G302K): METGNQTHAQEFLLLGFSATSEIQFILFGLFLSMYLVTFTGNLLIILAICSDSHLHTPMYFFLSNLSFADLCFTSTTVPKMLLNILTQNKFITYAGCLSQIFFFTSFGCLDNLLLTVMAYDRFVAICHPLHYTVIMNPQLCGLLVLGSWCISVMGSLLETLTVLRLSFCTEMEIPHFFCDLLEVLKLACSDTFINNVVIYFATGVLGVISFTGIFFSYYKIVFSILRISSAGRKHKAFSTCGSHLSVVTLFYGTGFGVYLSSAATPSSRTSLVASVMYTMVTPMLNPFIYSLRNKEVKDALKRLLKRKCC
Format: cell-based
Source text: To test for possible variants of the sequence […]CC (SEQ ID NO: 86) leading to similar improved functional expression, different point mutations were introduced into the first 16 amino acids of this sequence (corresponding to […], SEQ ID NO: 10) and the variants were fused after the TM7 with OR7C1. […] The test concentrations were selected to fall into the range of partial activity of the wild-type sequence.

Ala Ala and Ala Glu are the same in “% of the activation by the optimized sequence RNKEVKDALKRLLKRKCC” value (“% of the activation” for short): 2.1% for the first, 2.1% for the second.

First: Arg Arg
Second: Arg Gly
The “% of the activation” value of the first is higher: 167.7% for the first, 139.9% for the second.

First: Arg Lys
Second: Arg Phe
The “% of the activation” value of the first is lower: 2.0% for the first, 130.8% for the second.

Going from Arg Pro to Arg Tyr, the “% of the activation” value falls from 83.9% to 72.0%.

Compared with Cys Gly, Cys Phe is lower in “% of the activation” value: 142.3% for the first, 100.5% for the second.

First: Gln Glu
Second: Glu Arg
The “% of the activation” value of the first is lower: 0.0% for the first, 85.0% for the second.

Compared with Glu Lys, Gly Cys is lower in “% of the activation” value: 153.0% for the first, 126.8% for the second.

Compared with Gly Gly, Gly Leu is lower in “% of the activation” value: 128.9% for the first, 91.4% for the second.

Compared with His Asp, His Pro is higher in “% of the activation” value: 1.6% for the first, 114.6% for the second.

First: Ile Ala
Second: Lys Ala
The “% of the activation” value of the first is lower: 0.0% for the first, 3.5% for the second.

Compared with Phe Arg, Phe Phe is lower in “% of the activation” value: 181.7% for the first, 103.8% for the second.

Compared with Pro Ala, Pro Arg is higher in “% of the activation” value: 75.6% for the first, 142.3% for the second.

Going from Pro Gln to Pro Gly, the “% of the activation” value falls from 211.8% to 111.9%.

Going from Pro Pro to “SEQ ID NO: 87 (RNREVKDALKRLLKRKCC; source 1..18: note = C-terminal domain sequence)”, the “% of the activation” value rises from 36.2% to 119.1%.

Compared with “SEQ ID NO: 88 (RNKEIKDALKRLLKRKCC; source 1..18: note = C-terminal domain sequence)”, “SEQ ID NO: 89 (RNKEMKDALKRLLKRKCC; source 1..18: note = C-terminal domain sequence)” is higher in “% of the activation” value: 66.5% for the first, 76.7% for the second.

First: SEQ ID NO: 90 (RNKEVRDALKRLLKRKCC; source 1..18: note = C-terminal domain sequence)
Second: SEQ ID NO: 91 (RNKEVKKALKRLLKRKCC; source 1..18: note = C-terminal domain sequence)
The “% of the activation” value of the first is lower: 117.4% for the first, 140.8% for the second.

First: SEQ ID NO: 92 (RNKEVKEALKRLLKRKCC; source 1..18: note = C-terminal domain sequence)
Second: SEQ ID NO: 93 (RNKEVKNALKRLLKRKCC; source 1..18: note = C-terminal domain sequence)
The “% of the activation” value of the first is lower: 81.3% for the first, 95.3% for the second.

First: SEQ ID NO: 94 (RNKEVKRALKRLLKRKCC; source 1..18: note = C-terminal domain sequence)
Second: SEQ ID NO: 95 (RNKEVKVALKRLLKRKCC; source 1..18: note = C-terminal domain sequence)
The “% of the activation” value of the first is higher: 176.6% for the first, 122.1% for the second.

Going from “SEQ ID NO: 96 (RNKEVKAALKRLLKRKCC; source 1..18: note = C-terminal domain sequence)” to “SEQ ID NO: 97 (RNKEVKQALKRLLKRKCC; source 1..18: note = C-terminal domain sequence)”, the “% of the activation” value rises from 115.3% to 128.4%.

For “SEQ ID NO: 98 (RNKEVKDAVKRLLKRKCC; source 1..18: note = C-terminal domain sequence)”, the “% of the activation” value was 120.1%.

The substances below were run against T2, OR7D4 (Homo sapiens, UniProt Q8NG98, D296E/E302K/G299D) (assay: CRE-luciferase assay, HEK cells expressing OR7D4 (wild-type / modified C-terminus)). Settings: OR7D4 variant, 0.1 μM Androstenone.
T2 construct: Improved functional expression of modified OR-genes containing the truncated, optimized C-terminus; expressed in transfected cells
T2 sequence (Q8NG98 with tags, fused parts or gaps D296E/G299D/E302K): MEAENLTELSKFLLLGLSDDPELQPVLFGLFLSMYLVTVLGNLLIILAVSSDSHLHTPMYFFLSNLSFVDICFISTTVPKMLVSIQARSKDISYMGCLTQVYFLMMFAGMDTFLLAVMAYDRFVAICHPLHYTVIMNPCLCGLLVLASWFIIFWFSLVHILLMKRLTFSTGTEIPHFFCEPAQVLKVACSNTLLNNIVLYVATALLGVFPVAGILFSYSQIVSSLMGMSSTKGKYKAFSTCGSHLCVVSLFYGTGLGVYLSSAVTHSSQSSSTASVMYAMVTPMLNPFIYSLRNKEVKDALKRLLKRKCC
Format: cell-based
Source text: Random permutations of the general C-terminal sequence RN[KR][EDQ][VMIL][KR]KA[LIV][KRH][KR][LI][LIF][KRG][KR][KR]CC (SEQ ID NO: 822) linked to OR7D4 were generated based on degenerate oligonucleotides for the C-terminal domain. For this experiment, the MfeI/XhoI fragment from pcDNA3.1(+)-mmLucy-FLAG-rho-OR7D4 containing the CMV promoter and the OR coding sequence was used to replace the EcoRI/SalI fragment of pRDVCCB-CMV-dCas9-VPH-2A-Blast (Cellecta, Inc., Mountain View, USA). Complementary degenerate oligonucleotides were then used to replace the coding region of the C-terminal domain of […] (between Bsu36I and NotI). Random clones were selected, sequenced and tested for a correct open reading frame. A total of 55 clones were obtained with the correct open reading frame of […] and a permutation of the general sequence RN[KR][EDQ][VMIL][KR]KA[LIV][KRH][KR][LI][LIF][KRG][KR][KR]CC (SEQ ID NO: 822) as the C-terminal domain. All the different clones were compared to the wild-type sequence by the functional assay in HEK cells with the ligand Androstenone tested in a dose-response test.

Work on “SEQ ID NO: 305 (RNKDLKKAVKKLFGRKCC; source 1..18: note = C-terminal domain sequence)” yielded a Fold induction luciferase of 1.63.

Same assay, conditions: OR7D4 variant, 1 μM Androstenone

With “SEQ ID NO: 305 (RNKDLKKAVKKLFGRKCC; source 1..18: note = C-terminal domain sequence)” the Fold induction luciferase was 10.13.

Same assay, conditions: OR7D4 variant, Androstenone

Going from “SEQ ID NO: 290 (RNKDVKKALRRLFGKKCC; source 1..18: note = C-terminal domain sequence)” to “SEQ ID NO: 291 (RNKELKKAIKRLIRRKCC; source 1..18: note = C-terminal domain sequence)”, the “EC2 (concentration for 2-fold luciferase induction)” value rises from 0.008 µM to 0.113 µM (14-fold).

Compared with “SEQ ID NO: 292 (RNKDVRKAVKRLLKKRCC; source 1..18: note = C-terminal domain sequence)”, “SEQ ID NO: 293 (RNKELRKAIRRLLRRRCC; source 1..18: note = C-terminal domain sequence)” is 3.8-fold higher in “EC2 (concentration for 2-fold luciferase induction)” value: 0.018 µM for the first, 0.068 µM for the second.

Going from “SEQ ID NO: 294 (RNRDIRKALRKLFKKKCC; source 1..18: note = C-terminal domain sequence)” to “SEQ ID NO: 295 (RNRELKKALRRLLRRRCC; source 1..18: note = C-terminal domain sequence)”, the “EC2 (concentration for 2-fold luciferase induction)” value rises from 0.008 µM to 0.033 µM (4.1-fold).

First: SEQ ID NO: 296 (RNREVKKALRRLFGKKCC; source 1..18: note = C-terminal domain sequence)
Second: SEQ ID NO: 297 (RNRDVRKALKRLLKRKCC; source 1..18: note = C-terminal domain sequence)
The “EC2 (concentration for 2-fold luciferase induction)” value of the first is 1.7-fold lower: 0.003 µM for the first, 0.005 µM for the second.

Compared with “SEQ ID NO: 298 (RNRDMRKAIRKLFGRKCC; source 1..18: note = C-terminal domain sequence)”, “SEQ ID NO: 299 (RNRELKKAIRKLLKRKCC; source 1..18: note = C-terminal domain sequence)” is 8.5-fold higher in “EC2 (concentration for 2-fold luciferase induction)” value: 0.011 µM for the first, 0.093 µM for the second.

First: SEQ ID NO: 300 (RNRDIRKAVKKLFGKKCC; source 1..18: note = C-terminal domain sequence)
Second: SEQ ID NO: 301 (RNKEVKKAIRKLFGRRCC; source 1..18: note = C-terminal domain sequence)
The “EC2 (concentration for 2-fold luciferase induction)” value of the first is 1.5-fold higher: 0.020 µM for the first, 0.013 µM for the second.

“SEQ ID NO: 302 (RNREVRKAVRKLFRRKCC; source 1..18: note = C-terminal domain sequence)” and “SEQ ID NO: 303 (RNRDMKKALKKLFRRRCC; source 1..18: note = C-terminal domain sequence)” are within 1.5-fold of each other in “EC2 (concentration for 2-fold luciferase induction)” value: 0.014 µM for the first, 0.011 µM for the second.

Compared with “SEQ ID NO: 304 (RNRDVRKALKRLLGRRCC; source 1..18: note = C-terminal domain sequence)”, “SEQ ID NO: 305 (RNKDLKKAVKKLFGRKCC; source 1..18: note = C-terminal domain sequence)” is 22-fold higher in “EC2 (concentration for 2-fold luciferase induction)” value: 0.006 µM for the first, 0.131 µM for the second.

With “SEQ ID NO: 306 (RNKDVRKAVRRLFGRRCC; source 1..18: note = C-terminal domain sequence)” the “EC2 (concentration for 2-fold luciferase induction)” value was 0.017 µM.

Going from “SEQ ID NO: 290 (RNKDVKKALRRLFGKKCC; source 1..18: note = C-terminal domain sequence)” to “SEQ ID NO: 291 (RNKELKKAIKRLIRRKCC; source 1..18: note = C-terminal domain sequence)”, the “EC2 Fold-improvement vs. wild-type” value falls from 225.85 to 15.28.

First: SEQ ID NO: 292 (RNKDVRKAVKRLLKKRCC; source 1..18: note = C-terminal domain sequence)
Second: SEQ ID NO: 293 (RNKELRKAIRRLLRRRCC; source 1..18: note = C-terminal domain sequence)
The “EC2 Fold-improvement vs. wild-type” value of the first is higher: 94.88 for the first, 25.22 for the second.

Going from “SEQ ID NO: 294 (RNRDIRKALRKLFKKKCC; source 1..18: note = C-terminal domain sequence)” to “SEQ ID NO: 295 (RNRELKKALRRLLRRRCC; source 1..18: note = C-terminal domain sequence)”, the “EC2 Fold-improvement vs. wild-type” value falls from 224.95 to 51.89.

Compared with “SEQ ID NO: 296 (RNREVKKALRRLFGKKCC; source 1..18: note = C-terminal domain sequence)”, “SEQ ID NO: 297 (RNRDVRKALKRLLKRKCC; source 1..18: note = C-terminal domain sequence)” is lower in “EC2 Fold-improvement vs. wild-type” value: 525.05 for the first, 337.39 for the second.

Compared with “SEQ ID NO: 298 (RNRDMRKAIRKLFGRKCC; source 1..18: note = C-terminal domain sequence)”, “SEQ ID NO: 299 (RNRELKKAIRKLLKRKCC; source 1..18: note = C-terminal domain sequence)” is lower in “EC2 Fold-improvement vs. wild-type” value: 162.22 for the first, 18.62 for the second.

Compared with “SEQ ID NO: 300 (RNRDIRKAVKKLFGKKCC; source 1..18: note = C-terminal domain sequence)”, “SEQ ID NO: 301 (RNKEVKKAIRKLFGRRCC; source 1..18: note = C-terminal domain sequence)” is higher in “EC2 Fold-improvement vs. wild-type” value: 87.76 for the first, 128.57 for the second.

First: SEQ ID NO: 302 (RNREVRKAVRKLFRRKCC; source 1..18: note = C-terminal domain sequence)
Second: SEQ ID NO: 303 (RNRDMKKALKKLFRRRCC; source 1..18: note = C-terminal domain sequence)
The “EC2 Fold-improvement vs. wild-type” value of the first is lower: 126.99 for the first, 150.37 for the second.

Compared with “SEQ ID NO: 304 (RNRDVRKALKRLLGRRCC; source 1..18: note = C-terminal domain sequence)”, “SEQ ID NO: 305 (RNKDLKKAVKKLFGRKCC; source 1..18: note = C-terminal domain sequence)” is lower in “EC2 Fold-improvement vs. wild-type” value: 292.59 for the first, 13.15 for the second.

“SEQ ID NO: 306 (RNKDVRKAVRRLFGRRCC; source 1..18: note = C-terminal domain sequence)” was tested, and the “EC2 Fold-improvement vs. wild-type” value was 103.17.
